# According to patent publication US20230406951A1 (Pfizer, published 2023):
# Substitutions are numbered along the chain they refer to.
# T1: human TNFR2 (human, UniProt P20333 23-461)
# T1 construct: expressed on the surface of CHO cells; also called HuTNFR2; TNFRSF1B
# T1 sequence: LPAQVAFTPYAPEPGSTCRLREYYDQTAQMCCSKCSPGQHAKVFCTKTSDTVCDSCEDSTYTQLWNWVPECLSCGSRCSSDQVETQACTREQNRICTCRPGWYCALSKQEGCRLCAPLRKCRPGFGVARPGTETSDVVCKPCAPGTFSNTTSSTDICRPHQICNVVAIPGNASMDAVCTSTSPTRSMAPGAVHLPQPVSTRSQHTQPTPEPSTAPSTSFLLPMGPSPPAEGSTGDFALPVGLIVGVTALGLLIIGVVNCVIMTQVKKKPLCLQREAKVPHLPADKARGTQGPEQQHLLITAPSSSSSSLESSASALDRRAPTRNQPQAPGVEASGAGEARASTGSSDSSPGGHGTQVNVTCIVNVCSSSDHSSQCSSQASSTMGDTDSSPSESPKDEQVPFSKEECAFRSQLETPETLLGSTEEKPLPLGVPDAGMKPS
# B1: TetraFab 2171 (antibody)
# heavy: QVQLVQSGAEVKKPGASVKVSCKVSGFSFPSSGVDWVRQAPGQGLEWLGVTRGEGSTHYNQKFQGRVTITKDTSKSTVYMELSSLRSEDTAVYYCASGEWDEGFVYWGQGTLVTVSSASTKGPSVFPLAPSSKSTSGGTAALGCLVKDYFPEPVTVSWNSGALTSGVHTFPAVLQSSGLYSLSSVVTVPSSSLGTQTYICNVNHKPSNTKVDKKVEPKSCGGGGSQVQLVQSGAEVKKPGASVKVSCKVSGFSFPSSGVDWVRQAPGQGLEWLGVTRGEGSTHYNQKFQGRVTITKDTSKSTVYMELSSLRSEDTAVYYCASGEWDEGFVYWGQGTLVTVSSASTKGPSVFPLAPSSKSTSGGTAALGCLVKDYFPEPVTVSWNSGALTSGVHTFPAVLQSSGLYSLSSVVTVPSSSLGTQTYICNVNHKPSNTKVDKKVEPKSCDKTHTCPPCPAPEAAGAPSVFLFPPKPKDTLMISRTPEVTCVVVDVSHEDPEVKFNWYVDGVEVHNAKTKPREEQYNSTYRVVSVLTVLHQDWLNGKEYKCKVSNKALPAPIEKTISKAKGQPREPQVYTLPPSREEMTKNQVSLTCLVKGFYPSDIAVEWESNGQPENNYKTTPPVLDSDGSFFLYSKLTVDKSRWQQGNVFSCSVMHEALHNHYTQKSLSLSPGK
# light: DIQLTQSPSFLSASVGDRVTITCKASQNVGTAVAWYQQKPGKAPKLLIYAASTLQSGVPSRFSGSGSGTEFTLTISSLQPEDFATYYCLQYSSYPLTFGGGTKVEIKRTVAAPSVFIFPPSDEQLKSGTASVVCLLNNFYPREAKVQWKVDNALQSGNSQESVTEQDSKDSTYSLSSTLTLSKADYEKHKVYACEVTHQGLSSPVTKSFNRGEC
# notes: TetraFab
# B2: TetraFab 2057 (antibody)
# heavy: B1 heavy with R52L, E54H, R277L, E279H
# light: B1 light with L89Q
# notes: TetraFab
# B3: TetraFab 2055 (antibody)
# heavy: B1 heavy
# light: B1 light with L89Q
# notes: TetraFab
# B4: TetraFab 2054 (antibody)
# heavy: B1 heavy with R52K, E54Q, R277K, E279Q
# light: B1 light with L89Q
# notes: TetraFab
# B5: TetraFab 2056 (antibody)
# heavy: B1 heavy with R52F, G53Q, R277F, G278Q
# light: B1 light with L89Q
# notes: TetraFab
# B6: IgG 1972 (antibody, name in Kabat numbering, V domains shown)
# VH: QVQLVQSGAEVKKPGASVKVSCKVSGFSFPSSGVDWVRQAPGQGLEWLGVTHGSGSTHYNQKFQGRVTITKDTSKSTVYMELSSLRSEDTAVYYCASGEQDEGFVYWGQGTLVTVSS
# VL: DIQLTQSPSFLSASVGDRVTITCKASQNVGTAVAWYQQKPGKAPKLLIYAASTLQSGVPSRFSGSGSGTEFTLTISSLQPEDFATYYCQQYSSYPLTFGGGTKVEIKR
# notes: IgG
# B7: IgG 2038 (antibody, name in Kabat numbering, V domains shown)
# VH: B6 VH with H52R, S54E, Q100H
# VL: B6 VL with Q89L
# notes: IgG
# B8: IgG 2022 (antibody, name in Kabat numbering, V domains shown)
# VH: B6 VH with H52F, G53Q, S54E, Q100H
# VL: B6 VL with Q89L, Y91K
# notes: IgG
# B9: IgG 2039 (antibody, name in Kabat numbering, V domains shown)
# VH: B6 VH with H52R, S54E, Q100R
# VL: B6 VL with Q89L
# notes: IgG
# B10: IgG 2046 (antibody, name in Kabat numbering, V domains shown)
# VH: B6 VH with H52L, S54H, Q100H
# VL: B6 VL with Q89L
# notes: IgG
# B11: IgG 2023 (antibody, name in Kabat numbering, V domains shown)
# VH: B6 VH with H52F, G53Q, S54E, Q100R
# VL: B6 VL with Q89L, Y91K
# notes: IgG
# B12: IgG 2015 (antibody, name in Kabat numbering, V domains shown)
# VH: B6 VH with H52K, S54Q, Q100R
# VL: B6 VL with Q89L, Y91K
# notes: IgG
# B13: IgG 2037 (antibody, name in Kabat numbering, V domains shown)
# VH: B6 VH with H52R, S54E, Q100S, D101T
# VL: B6 VL with Q89L
# notes: IgG
# B14: IgG 2016 (antibody, name in Kabat numbering, V domains shown)
# VH: B6 VH with H52K, S54Q
# VL: B6 VL with Q89L, Y91K
# notes: IgG
# B15: IgG 2044 (antibody, name in Kabat numbering, V domains shown)
# VH: B6 VH with H52F, G53Q, S54E
# VL: B6 VL with Q89L
# notes: IgG
# B16: IgG 2052 (antibody, name in Kabat numbering, V domains shown)
# VH: B6 VH
# VL: B6 VL with Q89L
# notes: IgG
# B17: IgG 2033 (antibody, name in Kabat numbering, V domains shown)
# VH: B6 VH with H52K, S54Q, Q100S, D101T
# VL: B6 VL with Q89L
# notes: IgG
# B18: IgG 2031 (antibody, name in Kabat numbering, V domains shown)
# VH: B6 VH with Q100R
# VL: B6 VL with Q89L, Y91K
# notes: IgG
# B19: IgG 2034 (antibody, name in Kabat numbering, V domains shown)
# VH: B6 VH with H52K, S54Q, Q100H
# VL: B6 VL with Q89L
# notes: IgG
# B20: IgG 2050 (antibody, name in Kabat numbering, V domains shown)
# VH: B6 VH with Q100H
# VL: B6 VL with Q89L
# notes: IgG
# B21: IgG 2019 (antibody, name in Kabat numbering, V domains shown)
# VH: B6 VH with H52R, S54E, Q100R
# VL: B6 VL with Q89L, Y91K
# notes: IgG
# B22: IgG 2032 (antibody, name in Kabat numbering, V domains shown)
# VH: B6 VH
# VL: B6 VL with Q89L, Y91K
# notes: IgG
# B23: IgG 2021 (antibody, name in Kabat numbering, V domains shown)
# VH: B6 VH with H52F, G53Q, S54E, Q100S, D101T
# VL: B6 VL with Q89L, Y91K
# notes: IgG
# B24: IgG 2025 (antibody, name in Kabat numbering, V domains shown)
# VH: B6 VH with H52L, S54H, Q100S, D101T
# VL: B6 VL with Q89L, Y91K
# notes: IgG
# B25: IgG 2045 (antibody, name in Kabat numbering, V domains shown)
# VH: B6 VH with H52L, S54H, Q100S, D101T
# VL: B6 VL with Q89L
# notes: IgG
# B26: IgG 2041 (antibody, name in Kabat numbering, V domains shown)
# VH: B6 VH with H52F, G53Q, S54E, Q100S, D101T
# VL: B6 VL with Q89L
# notes: IgG
# B27: IgG 2048 (antibody, name in Kabat numbering, V domains shown)
# VH: B6 VH with H52L, S54H
# VL: B6 VL with Q89L
# notes: IgG
# B28: IgG 2035 (antibody, name in Kabat numbering, V domains shown)
# VH: B6 VH with H52K, S54Q, Q100R
# VL: B6 VL with Q89L
# notes: IgG
# B29: IgG 2017 (antibody, name in Kabat numbering, V domains shown)
# VH: B6 VH with H52R, S54E, Q100S, D101T
# VL: B6 VL with Q89L, Y91K
# notes: IgG
# B30: IgG 2047 (antibody, name in Kabat numbering, V domains shown)
# VH: B6 VH with H52L, S54H, Q100R
# VL: B6 VL with Q89L
# notes: IgG
# B31: IgG 2043 (antibody, name in Kabat numbering, V domains shown)
# VH: B6 VH with H52F, G53Q, S54E, Q100R
# VL: B6 VL with Q89L
# notes: IgG
# B32: IgG 2051 (antibody, name in Kabat numbering, V domains shown)
# VH: B6 VH with Q100R
# VL: B6 VL with Q89L
# notes: IgG
# B33: IgG 2036 (antibody, name in Kabat numbering, V domains shown)
# VH: B6 VH with H52K, S54Q
# VL: B6 VL with Q89L
# notes: IgG
# B34: IgG 2013 (antibody, name in Kabat numbering, V domains shown)
# VH: B6 VH with H52K, S54Q, Q100S, D101T
# VL: B6 VL with Q89L, Y91K
# notes: IgG
# B35: IgG 2030 (antibody, name in Kabat numbering, V domains shown)
# VH: B6 VH with Q100H
# VL: B6 VL with Q89L, Y91K
# notes: IgG
# B36: IgG 2042 (antibody, name in Kabat numbering, V domains shown)
# VH: B6 VH with H52F, G53Q, S54E, Q100H
# VL: B6 VL with Q89L
# notes: IgG
# B37: IgG 2026 (antibody, name in Kabat numbering, V domains shown)
# VH: B6 VH with H52L, S54H, Q100H
# VL: B6 VL with Q89L, Y91K
# notes: IgG
# Target: T1, human TNFR2
# Assay: binding to human TNFR2 CHO cells
row,binding result,Binder
1,no binding,B1
2,no binding,B2
3,no binding,B3
4,no binding,B4
5,no binding,B5
6,no binding,B6
7,no binding,B7
8,no binding,B8
9,no binding,B9
10,no binding,B10
11,no binding,B11
12,no binding,B12
13,no binding,B13
14,no binding,B14
15,no binding,B15
16,no binding,B16
17,no binding,B17
18,no binding,B18
19,no binding,B19

row,binding result,Binder
1,no binding,B20
2,no binding,B21
3,no binding,B22
4,no binding,B23
5,no binding,B24
6,no binding,B25
7,no binding,B26
8,no binding,B27
9,no binding,B28
10,no binding,B29
11,no binding,B30
12,no binding,B31
13,no binding,B32
14,no binding,B33
15,no binding,B34
16,no binding,B35
17,no binding,B36
18,no binding,B37
